Source: patent publication US20180265572A1 (Bristol-Myers Squibb, published 2018)

How the values were obtained:
human IGF-IR on cells [1] = target: T1, human IGF-IR on cells (human, UniProt P08069 31-1367); test: cell-based or functional assay
human IGF-IR on cells [2] = target: T1, human IGF-IR on cells; test: competitive blocking assay on R+ cells overexpressing human IGF-IR; competitor 200 nM IRDye 800CW-labelled AT580-PEG20-AT580
Experimental: Certain tandem constructs were evaluated for their ability to compete with mono-specific IGF-IR and VEGFR-2 binders in vitro.
R⁺, a gift from Renato Baserga (Thomas Jefferson University, Philadelphia, Pa.), is a mouse embryo fibroblast overexpressing human IGF-IR in the context of a deletion in the mouse IGF-IR gene. Cells were plated in 96 well plates at a concentration of 20,000 cells per well in DMEM (Invitrogen, Carlsbad, Calif.) containing 5% calf serum (Hyclone, Logan, Utah). The following day, cells were washed twice in serum free DMEM containing 0.1% BSA (Invitrogen, Carlsbad, Calif.). After the washes, the cells were incubated at 4° C. for 10 minutes in binding buffer (serum free DMEM+0.1% BSA) containing increasing concentrations of IGF-IR antagonists or controls. Typical controls included the mono-specific ¹⁰Fn3-based IGF-IR binder (AT580-PEG40, SEQ ID NO: 27) (positive control) or the mono-specific ¹⁰Fn3-based VEGFR2 binder (Peg-V2Bshort, SEQ ID NO: 28) (negative control). Following this brief exposure to antagonists, R⁺ cells were additionally exposed to 200 nM of a bi-valent ¹⁰Fn3-based IGF-IR binder (AT580-PEG20-AT580, SEQ ID NO: 27) labeled with IRDye 800CW according to the manufacturer instructions (Li-Cor Biosciences, Lincoln, Nebr.). […] The resulting data was analyzed using GraphPad Prism (GraphPad Software, La Jolla, Calif.).

human IGF-IR-Fc fusion [3] = target: T2, human IGF-IR-Fc fusion (human, UniProt P08069 31-932); test: SPR (Biacore), binding to IGF-IR-Fc, n=1
T2 construct: range 1-932; If it counts on the precursor, it includes the signal peptide; also called IGF1R-Fc; not shown: hinge and constant regions of human IgG

human IGF-IR on cells [4] = target: T1, human IGF-IR on cells; test: cell-based or functional assay; remark: listed apart in the source
[5] = target: VEGFR2 fusion protein on Ba/F3 cells (extracellular domain of hVEGFR2 and intracellular domain of hEpoR) (human, UniProt P35968 20-764; P19235 274-508, limits assumed); test: cell-based or functional assay
VEGFR2-Fc (R&D Systems) [6] = target: T3, VEGFR2-Fc (R&D Systems) (UniProt P35968 20-764); test: SPR (Biacore), VEGFR2-Fc immobilised directly on a CM5 chip, binder in solution; V2B domain; VEGFR2-Fc
T3 construct: Bought reagent; not shown: Fc part of the bought fusion; not described
Experimental: (§1) The functionality of the V2B domain was assessed by evaluating a concentration series of the midscale and large scale purification of the tandem construct 385A08-Fn-V2B (pegylated, and non-pegylated versions, his-tag and non-his-tag versions) vs. VEGFR2-Fc that was directly immobilized on a CM5 chip surface (GE, Piscataway, N.J.). VEGFR2-Fc (R&D Systems, MN) was diluted to 12 ug/mL in 50 mM Acetate pH 5.0 for an immobilization level of ˜1300 RU. Varying concentrations of 385A08-Fn-V2B in the solution phase were monitored for association (2 minutes) and dissociation (10 minutes) kinetics at a flow rate of 50 uL/min. Two 30 second injections of 50 mM glycine pH 1.7 were used to regenerate the surface.

VEGFR2-Fc (R&D Systems) [7] = target: T3, VEGFR2-Fc (R&D Systems); test: SPR (Biacore), VEGFR2-Fc immobilised directly on a CM5 chip, binder in solution; V2B domain; VEGFR2-Fc; average
Experimental: (§2) A concentration series of the midscale purification of the tandem construct 385A08-Fn-V2B (non pegylated, his-tagged version, SEQ ID NO: 8) was also evaluated. The functionality of each of the domains of this construct, specifically, the V2B domain, and the IGF-IR domain, was evaluated as described in the materials and methods section below.
as §1

human IGF-IR-Fc fusion [8] = target: T2, human IGF-IR-Fc fusion; test: SPR (Biacore), IGF-IR-Fc captured on anti-human IgG, binder in solution (n of 1); IGF-IR domain; IGF-IR-Fc; n of 1
Experimental: as §2
Another method to assess the functionality of the IGF-IR domain is to capture the IGF—IR-Fc on anti-human IgG (GE, Piscataway, N.J.). This was done for the midscale purified construct 385A08-Fn-V2B (non-pegylated, his-tag) as described in Example 5 above. The anti-human IgG was immobilized on flow cells 1 and 2 of a CM5 chip surface according the manufacturer's instructions. 100 nM human IGF—IR-Fc was injected for 2 minutes at 10 ul/min on flow cell 2. Subsequently a concentration series of the midscale prep was injected across both flow cell surfaces at 50 uL/min. Two injections of 50 mM Glycine pH 1.7 were used to regenerate the surface.

human IGF-IR-Fc fusion [9] = target: T2, human IGF-IR-Fc fusion; test: SPR (Biacore), IGF-IR-Fc captured on Protein A/G, HTPP purified binder in solution, n=1, KD approximate
human IGF-IR-Fc fusion [10] = target: T2, human IGF-IR-Fc fusion; test: SPR (Biacore T100), IGF-IR-Fc captured on Protein A; average over constructs; average over midscale and large scale material, with and without his tag; IGF1R
Experimental: (§3) Affinity data was also measured from midscale and large scale material, for the pegylated version of the tandem construct 385A08-Fn-V2B-cys (SEQ ID NO: 9, with and without his tag). The specific materials and methods for these calculations are described below.
(§4) An alternative method is to capture the IGF—IR-Fc on Protein A. This method was used for calculating the affinity and kinetics of certain versions of the construct 385A08-Fn-V2B-cys (both pegylated and non-pegylated and with or without his tag) from midscale and large scale materials. Specifically, IGF—IR-Fc was captured on Protein A immobilized on a Biacore CM5 sensor chip by amine coupling. VEGFR2-Fc was immobilized directly on a CM5 chip by amine coupling. The affinity and kinetic analysis involved the capture of IGF—IR-Fc on Protein A followed by injection of the tandem adnectin in solution over IGF—IR-Fc and VEGFR2-Fc. The analytical surface was regenerated between samples with glycine pH 1.5. Sensorgrams were obtained at each concentration and were evaluated using Biacore T100 evaluation software to determine the rate constants kₐ (kₒₙ) and kd (koff).

human IGF-IR-Fc fusion [11] = target: T2, human IGF-IR-Fc fusion; test: SPR (Biacore T100), IGF-IR-Fc captured on Protein A; average over constructs; average over midscale and large scale material, with and without his tag; IGF1R-Fc
Experimental: as §3, §4

VEGFR2-Fc (R&D Systems) [12] = target: T3, VEGFR2-Fc (R&D Systems); test: SPR (Biacore T100), VEGFR2-Fc immobilised directly on a CM5 chip; average over constructs; average over midscale and large scale material, with and without his tag; VEGFR2
Experimental: as §3
as §4, with “The affinity and kinetic analysis involved the capture of IGF—IR-Fc on Protein A followed by injection of the tandem adnectin in solution over IGF—IR-Fc and VEGFR2-Fc. The analytical surface was regenerated between samples with glycine pH 1.5.” left out
as §1, with “VEGFR2-Fc (R&D Systems, MN) was diluted to 12 ug/mL in 50 mM Acetate pH 5.0 for an immobilization level of ˜1300 RU.” left out, “Two 30 second injections of 50 mM glycine pH 1.7 were used to regenerate the surface.” left out

VEGFR2-Fc (R&D Systems) [13] = target: T3, VEGFR2-Fc (R&D Systems); test: SPR (Biacore T100), VEGFR2-Fc immobilised directly on a CM5 chip; average over constructs; average over midscale and large scale material, with and without his tag; VEGFR2-Fc
Experimental: as §3
as §4, with “The affinity and kinetic analysis involved the capture of IGF—IR-Fc on Protein A followed by injection of the tandem adnectin in solution over IGF—IR-Fc and VEGFR2-Fc. The analytical surface was regenerated between samples with glycine pH 1.5.” left out
as §1, with “VEGFR2-Fc (R&D Systems, MN) was diluted to 12 ug/mL in 50 mM Acetate pH 5.0 for an immobilization level of ˜1300 RU.” left out, “Two 30 second injections of 50 mM glycine pH 1.7 were used to regenerate the surface.” left out

B1: AT580-PEG40 (designed binder)
chain: MGVSDVPRDLEVVAATPTSLLISWSARLKVARYYRITYGETGGNSPVQEFTVPKNVYTATISGLKPGVDYTITVYAVTRFRDYQPISINYRTEIDKPCQ
modifications: 40 kDa PEG at position 98 (cysteine)
Human IGF-IR on cells [1]
  IC50 for inhibition of pIGF-1R activity, Western blot, HMVEC-L cells stimulated with VEGF and IGF-1: 100 nM
Human IGF-IR on cells [2]
  IC50: 600 nM

B2: AT577 (designed binder)
chain: MGVSDVPRDLEVVAATPTSLLISWSARLKVARYYRITYGETGGNSPVQEFTVPKNVYTATISGLKPGVDYTITVYAVTRFRDYQPISINYRTEIDKPSQ
Human IGF-IR-Fc fusion [3]
  Kd: 0.076 nM

B3: 385A08-Fn-V2B (non pegylated, his-tagged version) (designed binder)
chain: GVSDVPRDLEVVAATPTSLLISWSARLKVARYYRITYGETGGNSPVQEFTVPKNVYTATISGLKPGVDYTITVYAVTRFRDYQPISINYRTEIDKPSTSTSTVSDVPRDLEVVAATPTSLLISWRHPHFPTRYYRITYGETGGNSPVQEFTVPLQPPTATISGLKPGVDYTITVYAVTDGRNGRLLSIPISINYRTEIDKPSQHHHHHH
notes: also called 385A08-Fn-V2B (Ser tail); 385A08-Fn-V2B (with his tag)
Human IGF-IR on cells [4]
  IC50, inhibition of proliferation of Rh41 cells (n=1): 26 nM
[5]
  IC50, inhibition of VEGF-A dependent proliferation of Ba/F3 cells: 1 nM
VEGFR2-Fc (R&D Systems) [6]
  Kd: ~0.3 nM
VEGFR2-Fc (R&D Systems) [7]
  koff: 0.00045 s⁻¹
  kon: 1.4e+06 M⁻¹ s⁻¹
Human IGF-IR-Fc fusion [8]
  Kd: ~0.02 nM
  koff: 0.00017 s⁻¹
  kon: 1.1e+07 M⁻¹ s⁻¹
Human IGF-IR-Fc fusion [9]
  Kd: ~0.3 nM

B4: pegylated version of the tandem construct 385A08-Fn-V2B-cys (with and without his tag) (designed binder)
chain: MGVSDVPRDLEVVAATPTSLLISWSARLKVARYYRITYGETGGNSPVQEFTVPKNVYTATISGLKPGVDYTITVYAVTRFRDYQPISINYRTEIDKPSTSTSTVSDVPRDLEVVAATPTSLLISWRHPHFPTRYYRITYGETGGNSPVQEFTVPLQPPTATISGLKPGVDYTITVYAVTDGRNGRLLSIPISINYRTEIDKPCQ
modifications: PEG on the single cysteine at position 203
notes: also called the various constructs tested
Human IGF-IR-Fc fusion [10]
  Kd: 0.84 nM
Human IGF-IR-Fc fusion [11]
  koff: 0.000247 s⁻¹
  kon: 315000 M⁻¹ s⁻¹
VEGFR2-Fc (R&D Systems) [12]
  Kd: 10.5 nM
VEGFR2-Fc (R&D Systems) [13]
  koff: 0.000102 s⁻¹
  kon: 11500 M⁻¹ s⁻¹
